{"source": "the nanobody polyreactivity screen of Harvey et al. (2022)"}
{"assay": "yeast display, Sf9 membrane polyspecificity reagent, FACS + sequencing; frameworks hold sequencing errors", "method_in_brief": "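Nanobodies came from a synthetic yeast display library in Saccharomyces cerevisiae BJ5465, induced with galactose for 36–48 hours and stained for 1 hour at 4 °C with 10% biotinylated, detergent-solubilized Sf9 membrane reagent. Cells were enriched on streptavidin microbeads and then FACS-sorted, with low and high (top ~1%) gates set on anti-HA fluorescence for expression and streptavidin fluorescence for reagent binding. Each polyreactivity label reflects the gate a clone came from. Genes were amplified by colony PCR, sequenced by MiSeq 2 × 250 and filtered by CDR length.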"}
{"sequence": "QVQLVESGGGLVKAGGSLRLRCAAAGLILYPYAMGWYRQAPGKESELVAAITSDGSTYYADSVKGRFTISRVNAKNTVYLQMNSLKQEDTAVYYCAVVVAYFDDDYGLSWFYEYDYWGQGTQVTVSS", "polyreactivity (PSR sort gate)": "low polyreactivity"}
{"sequence": "QVQLVESGGGLVKAGGSLRLSCAASGFIFGYNAMGWDRQAPGKERELVAVITDSSDSTYYADSVKGRFTISRDNAMNTVYLQMNSLKPEDTAVYYCDTDYGYAGDYWGQGTQVTVSS", "polyreactivity (PSR sort gate)": "low polyreactivity"}
{"sequence": "QVQLVESGGGLVKAGGSLRLSCAASGFILRAYAMGWYRQAPGKEREFVAAITRRGGRTYYADSVKGRFTISRDNAKKTVSLQMYSLKPEDTAVYYCNRVERRGTYDYWGQGTQVTVSS", "polyreactivity (PSR sort gate)": "high polyreactivity"}
{"sequence": "QVQLVESGGGLVKAGGSLRLSCAASGFIYKFYAMGWYRQAPRKERELVAAINYSGGSTYYADSVKGRFTISRDNAKNTVYLKMNSLKPEDTAVFYCNALYTYGWYSDDYWGQGTQVTVSS", "polyreactivity (PSR sort gate)": "high polyreactivity"}
{"sequence": "QVQLVESGGGLVKAGGSLRLSCAASGFTFPQYAMGWYRQAPGKESELVAAISKRSGGTRYADSVKGRFTISRDNAKNTVYLQMNSLKPEDTAVYYCAAATPSGYYYWGQGTQVTVSS", "polyreactivity (PSR sort gate)": "high polyreactivity"}
{"sequence": "QVQLVESGGGLVKAGGSLRLSCAASGFTFRRNAMGWYRQAPGKERELVAAITYNGGTTYYADSVKGRFTISRDNAKNTVYLQMNSLKPEDTAVDYCNAPYGRQGYDYWGQGTQVTVSS", "polyreactivity (PSR sort gate)": "low polyreactivity"}
{"sequence": "QVQLVESGGGLVKAGGSLRLSCAASGGTFPLYAMGWYRQAPGKERELVAAIRWSGGRTYYADSVKGRFTISRDNAKNTVYLQMNSLKPEDTAVYYCSADYDDGWGYDYWGQGTQVTVSS", "polyreactivity (PSR sort gate)": "high polyreactivity"}
{"sequence": "QVQLVESGGGLVKAGGSLRLSCAASGNIFRRYAMGWYRQARGKERELVAAITWRGGNTYYADSVKGRFTISRDNAKNTVYLQMNCLKPEDTAVYYCNRVYRQRLGRDYWGLGTQVTVSS", "polyreactivity (PSR sort gate)": "high polyreactivity"}
{"sequence": "QVQLVESGGGLVKAGGSLRLSCAASGRIDWYYAMGLYRQAPRKERDLVAAISRSGGTTYYADSVKGRFTISRDNAKNSVFLQMNSLQPEDTEVYYCAAVFHAYTGYEAWEEYEYWGQGTQVTVSA", "polyreactivity (PSR sort gate)": "high polyreactivity"}
{"sequence": "QVQLVESGGGLVKAGGSLRLSCAASGRIFRYYAMGRYRQAPGKEREFVAAISTDGGRTYYADSVKGRFTISRDNAKNTVYLQMNSLKPEDTAVYYCAIYPGISGYNYWGQGTQVTVSS", "polyreactivity (PSR sort gate)": "high polyreactivity"}
{"sequence": "QVQLVESGGGLVKAGGSLRLSCAASGRTFFRNAMGWYRQAPGKEREFVAAINSSGGSTYYADSVKGRFTISRDNAKNTVYFQMNSLKPEDTAVYYCARYHYPFYKPYGFGYWGQGTQVTVSS", "polyreactivity (PSR sort gate)": "high polyreactivity"}
{"sequence": "QVQLVESGGGLVKAGGSLRLSCAASGSIYTNAMGWYRQAPGKERELVAAISWSGGRTYYADSVKGRFTISRDNAKNTVYLQINSLKPEDTAVYYCNPRGTRIASGHYYWGQGTLVTVSS", "polyreactivity (PSR sort gate)": "high polyreactivity"}
{"sequence": "QVQLVESGGGLVKAGGSLRLSCAASGSTFPLYAMGWYRQAPGKEREFVAAIRWIGGSTYYADSVKGRFTISRDNAKNTVYLQMNSLKPEDTAVYFCAADYVVSAFDYWGQGTQVTVSS", "polyreactivity (PSR sort gate)": "low polyreactivity"}
{"sequence": "QVQLVESGGGLVKAGGSLRLSCAASGSTFYNYAMGWYRQAPGKERELVAAISTRGGSTYYADSVKGRFTISRDNAKNTVYLQMNSLKPEDTAVYYCAADGRGGHDDYWGQGTQVTVSS", "polyreactivity (PSR sort gate)": "high polyreactivity"}
{"sequence": "QVQLVESGGGLVKAGGSLRLSCAASGSTIGGNAMVWYRQAPGKERELVASITRSGGSTYYADSVKGRFTISRDNAKNNVYLQMNSLKPEDSAVYYCAAGKWYRSPWKYDYWGQVTQVTVSS", "polyreactivity (PSR sort gate)": "low polyreactivity"}
{"sequence": "QVQLVESGGGLVKAGGSLRLSCAASGSTSQVNDMGWYRQAPGTERELVGAISSTGDRTYYADSVKGRFTISRDNAKNNVYLQMNSLKPDDTAVYYCANDPFPFPCGDYWGQGTQVTVSS", "polyreactivity (PSR sort gate)": "low polyreactivity"}
{"sequence": "QVQLVESGGGLVKAGGSLRLSCAASGYTFGKYAMGWYRQAPGKERELVAAISWSGGSTYYADSVKGRFRISRDNAKNTVYLQMNSLKPEDTAVYYCNKGYFGRYGYWGQGTQVTVSS", "polyreactivity (PSR sort gate)": "high polyreactivity"}
{"sequence": "QVQLVESGGGLVKAGGSLRLSCASSGRIFRYYTMGWYRQAPGKERELVAAISTSDDSTNYADSVKGRFTISRDNAKNTVYLQMNSLKPEDTAVYYCAADQSRVGSYQDYDYWGQGTQVTVSS", "polyreactivity (PSR sort gate)": "low polyreactivity"}
{"sequence": "QVQLVESGGGLVKARGSLLLSCAASGFTFPYNAMGWYRQAPGKDRELVAAISWSGGSTYYADSVKGRFTLSRDNAKNTVYLQMNSLKPEDTAVYYCAASYWWIPMEYWGQVTQVTVSS", "polyreactivity (PSR sort gate)": "high polyreactivity"}
{"sequence": "QVQLVESGGGLVKARGSLRLSCAASGFTFGSYAMGWYRQAPGKERELVAAITRGSGGTYYADSVKGRFTISRDNAKNTVYVQMNSLKPEDTAVYNCASCSRSRGALRFAHFDYWGQGTQGTVSS", "polyreactivity (PSR sort gate)": "high polyreactivity"}
{"sequence": "QVQLVESGGGLVLAGGRLRLSCAASGSTFGYYAMGWYRQAHGKERELVAAISQGAGRTYYADSVKGRFTISRDNAKNTDYLQMNSLKPEDSAVYYFAASVTVHRWAYGYWGQGTQVTVSS", "polyreactivity (PSR sort gate)": "high polyreactivity"}
{"sequence": "QVQLVESGGGLVLAGGSLRLSCAASGGTFARYAMGWYRQAPGKERELVAAISRGGSTNYADSVKGRFTISRDNAKNTVYLQMNSLKPEDTAVYYCAAGSRRAAWYDYSYPYGYWGQGTQVTVSS", "polyreactivity (PSR sort gate)": "high polyreactivity"}
{"sequence": "QVQLVESGGGLVLAGGSLRLSCAASGRIFIGNAMGWYRQAPGKERELVAAISKRGGSTYYADSVKGRFTISRDNAKNTVYLQMISLKPEDTAVYYCNKEPLYREFDYWGQGTQVTVSS", "polyreactivity (PSR sort gate)": "low polyreactivity"}
{"sequence": "QVQLVESGGGLVLAGGSLRLSCAASGRIFLRNAMGWYRQAPGKVRELVATITSRGGSTYYADSVKGRFTISRDKAKNTVYLQMNSLKPEDTAVYYCAADPRRYRGFGYVYGGFYYWGQGTQVTVSS", "polyreactivity (PSR sort gate)": "low polyreactivity"}
{"sequence": "QVQLVESGGGLVLAGGSLRLSCAASGRIFTNNVMGWYRQAPGKERELVAAISRSGGRTYYADSVKGRFTISRDNAKNTVYLQMNSLKPEDTAVYYCAAVYQKAATDKYESVYESYYWGQGTQVTVSS", "polyreactivity (PSR sort gate)": "high polyreactivity"}
{"sequence": "QVQLVESGGGLVLAGGSLRLSCAASGRSFVSNALGWSRQAPGSDRELVARISNGASTDADSVKGRFTISRDNAKKTVYLQINSLKPEDTAVYYSAKTTRRGGVALGEYDYWGQLTQVTVSS", "polyreactivity (PSR sort gate)": "low polyreactivity"}
{"sequence": "QVQLVESGGGLVLAGGSLRLSCAASGRTFRSYAMGWYRQAPGKERELVAAISSGGSTNYADSVKGRFTISRDNAKNTVYLQMNSLKPEDTAVYYCAATFQLYRFIGYEYWGQGTQVTVSS", "polyreactivity (PSR sort gate)": "high polyreactivity"}
{"sequence": "QVQLVESGGGLVLAGGSLRLSCAASGSIFQPNAMGWYRQAPGKERELVASIRGRGGDTYYADSVKGRFTISRDNAKNSVYLQMNSLKPEDTAVDYCAADYRWGQGTQVTVSS", "polyreactivity (PSR sort gate)": "low polyreactivity"}
{"sequence": "QVQLVESGGGLVLAGGSLRLSCAASGSTFFSYMGWYREAPGKERELVAANTSGAITYYADSVKGRFTISRDNAKNTVYLQMNSLKPEDTAVYYCNTDRYYVTLRNLEMDYWGQGTQVTVSS", "polyreactivity (PSR sort gate)": "low polyreactivity"}
{"sequence": "QVQLVESGGGLVLAGGSLRLSCAASRFILRDNGMGWNRKAPVKERELVAAISERGGRTDYADSVKGRFTISRDNAKNTVYLQMNSLKPEDTAVYYCAAEDIANFYYWGQGPQVTVSS", "polyreactivity (PSR sort gate)": "high polyreactivity"}
{"sequence": "QVQLVESGGGLVLAGGSLRLSCADSGLILRLNAMGWYRQAPGKDRELVATINRGGSTNYADSVKGRFTISRDNAKNTVFLQMNSLNPEDTAVDYCNKARTSQYHHTYWRTYGYWGQGTQVTVSS", "polyreactivity (PSR sort gate)": "low polyreactivity"}
{"sequence": "QVQLVESGGGLVLAGGSLRLSGAASGRISGYNVLGWARQAAGKERELVAAISGSGGSTYYADSVKGRFTISRDNAKNTVYLQMNSLKPEDTADYYCGKATGYPYDYWGHGTQVTVSS", "polyreactivity (PSR sort gate)": "low polyreactivity"}
